In patent WO2017222556A2 (dated 2017):

T1: human NKG2D-Fc (human, UniProt P26718 78-216)
T1 construct: also called human NKG2D-Fc reagent; not shown: Fc part, not described
T1 sequence (looked up): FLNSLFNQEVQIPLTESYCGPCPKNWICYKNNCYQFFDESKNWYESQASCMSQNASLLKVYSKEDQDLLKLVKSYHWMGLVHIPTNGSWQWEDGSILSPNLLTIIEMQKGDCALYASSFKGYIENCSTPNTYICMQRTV

T2: mouse NKG2D-Fc (mouse, UniProt O54709 94-232)
T2 construct: also called murine NKG2D-Fc; murine NKG2D; not shown: Fc part, not described
T2 sequence (looked up): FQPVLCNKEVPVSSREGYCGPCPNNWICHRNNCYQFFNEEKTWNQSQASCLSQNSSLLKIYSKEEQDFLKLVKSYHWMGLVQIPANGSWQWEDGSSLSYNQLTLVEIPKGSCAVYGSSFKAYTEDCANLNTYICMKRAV

T3: biotinylated human NKG2D (human, UniProt P26718 78-216)
T3 construct: also called surface coated biotinylated human NKG2D; recombinant biotinylated NKG2D
T3 sequence (looked up): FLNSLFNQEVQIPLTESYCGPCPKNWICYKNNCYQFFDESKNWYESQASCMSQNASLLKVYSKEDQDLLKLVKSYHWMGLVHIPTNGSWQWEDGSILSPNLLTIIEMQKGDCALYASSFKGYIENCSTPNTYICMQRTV

T4: NKG2D on NKL cells (human, UniProt P26718 1-216)
T4 sequence (looked up): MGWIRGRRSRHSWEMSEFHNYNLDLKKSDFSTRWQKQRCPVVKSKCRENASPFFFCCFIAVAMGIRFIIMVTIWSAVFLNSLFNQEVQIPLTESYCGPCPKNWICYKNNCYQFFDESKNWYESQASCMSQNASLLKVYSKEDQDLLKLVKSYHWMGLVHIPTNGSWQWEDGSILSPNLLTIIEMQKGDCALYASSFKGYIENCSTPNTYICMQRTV


Key:
human NKG2D-Fc [1] = target: T1, human NKG2D-Fc; test: competition ELISA: inhibition of 2 nM human NKG2D-Fc binding to plate-coated WT sMICA
mouse NKG2D-Fc = target: T2, mouse NKG2D-Fc; test: competition ELISA: inhibition of mouse NKG2D-Fc binding to plate-coated MICA
biotinylated human NKG2D [2] = target: T3, biotinylated human NKG2D; test: biolayer interferometry (Octet), surface coated biotinylated human NKG2D, 100 nM protein
NKG2D on NKL cells = target: T4, NKG2D on NKL cells; test: cell-based or functional assay
biotinylated human NKG2D [3] = target: T3, biotinylated human NKG2D; test: biolayer interferometry (Octet), surface-coated biotinylated human NKG2D, titration 1-100 nM
biotinylated human NKG2D [4] = target: T3, biotinylated human NKG2D; test: biolayer interferometry (Octet), surface-coated biotinylated human NKG2D
human NKG2D-Fc [5] = target: T1, human NKG2D-Fc; test: competition ELISA: inhibition of human NKG2D-Fc binding to plate-coated WT sMICA

| Binder | IC50 (human NKG2D-Fc [1]) | fold better binding to NKG2D than WT NKG2DL (human NKG2D-Fc [1]) | binding result (mouse NKG2D-Fc) | fold affinity increase relative to WT al -a2 (biotinylated human NKG2D [2]) | fold reduction in the off-rate relative to WT (biotinylated human NKG2D [2]) | killing of FGFR3-expressing P815 cells by NKL cells, calcein-release assay, fold against WT at 0.78 nM (NKG2D on NKL cells) | other results |
| --- | --- | --- | --- | --- | --- | --- | --- |
| al-a2 variant 16 (ligand) EPHSLRYNLTVLSWDGSVQSGFLTEVHLDGQPFLRCDRQKCRAKPQGQWAEDVLGNKTWDRETRDLTGWGKDLRMTLAHIKDQKEGLHSLQEIRVCEIHEDNSTRSSQHFYYDGELFLSQNLETLEWTMPQSSRAQTLAMNVRNFLKEDAMETDTHYHAMRADCLQELRRYLKSGVVLRRTVPPMVQVTRSEASGGSGDRVTITCRASQDVSTAVAWYQQKPGKAPKLLIYSASFLYSGVPSRFSGSGSGTDFTLTISSLQPEDFATYYCQQSYTTPPTFGQGTKVEIKGGSSRSSSSGGGGSGGGGEVQLVESGGGLVQPGGSLRLSCAASGFTFTSTGISWVRQAPGKGLEWVGRIYPTNGSTNYADSVKGRFTISADTSKNTAYLQMNSLRAEDTAVYYCARTYGIYDLYVDYTEYVMDYWGQGTLVTVSSGGSSRSSSSGGGGSGGGGDIQMTQSPSSLSASGGSGQITVTCRASGFYPWNITLSWRQDGVSLSHDTQQWGDVLPDGQGTYQTWVATRISQGEEQRFTCYMEHSGQHSTHPVPSGKGSHHHHHH | 0.7 nM | 27 fold | binds | 30 fold | 18 fold | ~15 fold |  |
| al-a2 variant 25 (ligand) EPHSLRYNLTVLSWDGSVQSGFLTEVHLDGQPFLRCDRQKCRAKPQGQWAEDVLGNKTWDRETRDLTGWGKDLRMTLAHIKDQKEGLHSLQEIRVCEIHEDNSTRSSQHFYYDGELFLSQNLETLEWTMPQSSRAQTLAMNVRNFLKEDAMETDTHYHAMRADCLSELRRYLKSGVVLRRTVPPMVQVTRSEASGGSGDRVTITCRASQDVSTAVAWYQQKPGKAPKLLIYSASFLYSGVPSRFSGSGSGTDFTLTISSLQPEDFATYYCQQSYTTPPTFGQGTKVEIKGGSSRSSSSGGGGSGGGGEVQLVESGGGLVQPGGSLRLSCAASGFTFTSTGISWVRQAPGKGLEWVGRIYPTNGSTNYADSVKGRFTISADTSKNTAYLQMNSLRAEDTAVYYCARTYGIYDLYVDYTEYVMDYWGQGTLVTVSSGGSSRSSSSGGGGSGGGGDIQMTQSPSSLSASGGSGQITVTCRASGFYPWNITLSWRQDGVSLSHDTQQWGDVLPDGQGTYQTWVATRISQGEEQRFTCYMEHSGQHSTHPVPSGKGSHHHHHH |  |  |  |  |  |  | Kd (biotinylated human NKG2D [3]): 0.062 nM; EC50 for cell killing, fold improvement against variant 16 (NKG2D on NKL cells): ~5 fold; killing of FGFR3-expressing P815 cells by NKL cells, calcein-release assay, fold against variant 16 at 0.2 nM (NKG2D on NKL cells): ~3 fold; fold enhancement in equilibrium binding affinity against variant 16 (biotinylated human NKG2D [4]): 8 fold |
| al-a2 variant 48 (ligand) EPHSLRYNLTVLSWDGSVQSGFLTEVHLDGQPFLRCDRQKCRAKPQGQWAEDVLGNKTWDRETRDLTGWGKDLRMTLAHIKDQKEGLHSLQEIRVCEIHEDNSTRSSQHFYYDGELFLSQNLETLEWTMPQSSRAQTLAMNVRNFLKEDAMATDTHYIAMRADCLAELRRYLKSGVVLRRTVPPMVQVTRSEASGGSGDRVTITCRASQDVSTAVAWYQQKPGKAPKLLIYSASFLYSGVPSRFSGSGSGTDFTLTISSLQPEDFATYYCQQSYTTPPTFGQGTKVEIKGGSSRSSSSGGGGSGGGGEVQLVESGGGLVQPGGSLRLSCAASGFTFTSTGISWVRQAPGKGLEWVGRIYPTNGSTNYADSVKGRFTISADTSKNTAYLQMNSLRAEDTAVYYCARTYGIYDLYVDYTEYVMDYWGQGTLVTVSSGGSSRSSSSGGGGSGGGGDIQMTQSPSSLSASGGSGQITVTCRASGFYPWNITLSWRQDGVSLSHDTQQWGDVLPDGQGTYQTWVATRISQGEEQRFTCYMEHSGQHSTHPVPSGKGSHHHHHH |  |  |  |  |  |  | fold reduction in NKG2D binding affinity (biotinylated human NKG2D [3]): 250 fold |
| al-a2 variant 17 (ligand) EPHSLRYNLTVLSWDGSVQSGFLTEVHLDGQPFLRCDRQKCRAKPQGQWAEDVLGNKTWDRETRDLTLWGKDLRMTLAHIKDQKEGLHSLQEIRVCEIHEDNSTRSSQHFYYDGELFLSQNLETLEWTMPQSSRAQTLAMNVRNFLKEDAMETDTHYHAMRADCLQELRRYLKSGVVLRRTVPPMVQVTRSEASGGSGDRVTITCRASQDVSTAVAWYQQKPGKAPKLLIYSASFLYSGVPSRFSGSGSGTDFTLTISSLQPEDFATYYCQQSYTTPPTFGQGTKVEIKGGSSRSSSSGGGGSGGGGEVQLVESGGGLVQPGGSLRLSCAASGFTFTSTGISWVRQAPGKGLEWVGRIYPTNGSTNYADSVKGRFTISADTSKNTAYLQMNSLRAEDTAVYYCARTYGIYDLYVDYTEYVMDYWGQGTLVTVSSGGSSRSSSSGGGGSGGGGDIQMTQSPSSLSASGGSGQITVTCRASGFYPWNITLSWRQDGVSLSHDTQQWGDVLPDGQGTYQTWVATRISQGEEQRFTCYMEHSGQHSTHPVPSGKGSHHHHHH | 0.6 nM | 32 fold |  | 30 fold | 18 fold | ~15 fold |  |

Further lines, with some results ahead:

| IC50 (human NKG2D-Fc [1]) | fold better binding to NKG2D than WT NKG2DL (human NKG2D-Fc [1]) | binding result (mouse NKG2D-Fc) | fold affinity increase relative to WT al -a2 (biotinylated human NKG2D [2]) | fold reduction in the off-rate relative to WT (biotinylated human NKG2D [2]) | Binder | killing of FGFR3-expressing P815 cells by NKL cells, calcein-release assay, fold against WT at 0.78 nM (NKG2D on NKL cells) | other results |
| --- | --- | --- | --- | --- | --- | --- | --- |
|  |  | binds |  |  | WED-MICA (ligand, also called WED- al-cc2 domains; WED soluble MICA) EPHSLRYNLTVLSWDGSVQSGFLTEVHLDGQPFLRCDRQKCRAKPQGQWAEDVLGNKTWDRETRDLTGWGKDLRMTLAHIKDQKEGLHSLQEIRVCEIHEDNSTRSSQHFYYDGELFLSQNLETKEWTMPQSSRAQTLAMNVRNFLKEDAMETDTHYHAMHADCLQELRRYLKSGVVLRRTVPPMVQVTRSEASGGSGDRVTITCRASQDVSTAVAWYQQKPGKAPKLLIYSASFLYSGVPSRFSGSGSGTDFTLTISSLQPEDFATYYCQQSYTTPPTFGQGTKVEIKGGSSRSSSSGGGGSGGGGEVQLVESGGGLVQPGGSLRLSCAASGFTFTSTGISWVRQAPGKGLEWVGRIYPTNGSTNYADSVKGRFTISADTSKNTAYLQMNSLRAEDTAVYYCARTYGIYDLYVDYTEYVMDYWGQGTLVTVSSGGSSRSSSSGGGGSGGGGDIQMTQSPSSLSASGGSGQITVTCRASGFYPWNITLSWRQDGVSLSHDTQQWGDVLPDGQGTYQTWVATRISQGEEQRFTCYMEHSGQHSTHPVPSGKGSHHHHHH |  | binding result (human NKG2D-Fc [5]): binds |
| 0.5 nM | 38 fold |  | 30 fold | 18 fold | al-a2 variant 18 (ligand) EPHSLRYNLTVLSWDGSVQPGFLTEVHLDGQPFLRCDRQKCRAKPQGQWAEDVLGNKTWDRETRDLTLWGKDLRMTLAHIKDQKEGLHSLQEIRVCEIHEDNSTRSSQHFYYDGELFLSQNLETLEWTMPQSSRAQTLAMNVRNFLKEDAMETDTHYHAMRADCLQELRRYLKSGVVLRRTVPPMVQVTRSEASGGSGDRVTITCRASQDVSTAVAWYQQKPGKAPKLLIYSASFLYSGVPSRFSGSGSGTDFTLTISSLQPEDFATYYCQQSYTTPPTFGQGTKVEIKGGSSRSSSSGGGGSGGGGEVQLVESGGGLVQPGGSLRLSCAASGFTFTSTGISWVRQAPGKGLEWVGRIYPTNGSTNYADSVKGRFTISADTSKNTAYLQMNSLRAEDTAVYYCARTYGIYDLYVDYTEYVMDYWGQGTLVTVSSGGSSRSSSSGGGGSGGGGDIQMTQSPSSLSASGGSGQITVTCRASGFYPWNITLSWRQDGVSLSHDTQQWGDVLPDGQGTYQTWVATRISQGEEQRFTCYMEHSGQHSTHPVPSGKGSHHHHHH | ~15 fold |  |
| 1.7 nM | 11 fold | binds |  |  | al-a2 variant 15 (ligand) EPHSLRYNLTVLSWDGSVQSGFLTEVHLDGQPFLRCDRQKCRAKPQGQWAEDVLGNKTWDRETRDLTGWGKDLRMTLAHIKDQKEGLHSLQEIRVCEIHEDNSTRSSQHFYYDGELFLSQNLETNEWTMPQSSRAQTLAMNVRNFLKEDAMETDTHYHAMRADCLQELRRYLKSGVVLRRTVPPMVQVTRSEASGGSGDRVTITCRASQDVSTAVAWYQQKPGKAPKLLIYSASFLYSGVPSRFSGSGSGTDFTLTISSLQPEDFATYYCQQSYTTPPTFGQGTKVEIKGGSSRSSSSGGGGSGGGGEVQLVESGGGLVQPGGSLRLSCAASGFTFTSTGISWVRQAPGKGLEWVGRIYPTNGSTNYADSVKGRFTISADTSKNTAYLQMNSLRAEDTAVYYCARTYGIYDLYVDYTEYVMDYWGQGTLVTVSSGGSSRSSSSGGGGSGGGGDIQMTQSPSSLSASGGSGQITVTCRASGFYPWNITLSWRQDGVSLSHDTQQWGDVLPDGQGTYQTWVATRISQGEEQRFTCYMEHSGQHSTHPVPSGKGSHHHHHH |  |  |
